# Assay results published in US20230295310A1 (ABCELLERA BIOLOGICS, published 2023).
# Experiments:
# [1] = target: T1, human CD3 expressed on cells (human, UniProt P07766 23-207; P04234 22-171; P09693 23-182); assay: flow cytometry, 25 nM, Jurkat cells (human primary T cells in c4 also <10)
# T1 construct: whole, on cells; CD3 complex on Jurkat cells and on human primary T cells
# Protocol: (§1) Purified antibodies were confirmed to bind CD3 expressed on cells using the CytoFLEX S or LX flow cytometers (Beckman Coulter). Antibodies were diluted to 25 nM in FACS buffer (PBS+2% FBS) and were incubated with CD3-expressing cells for 30 minutes at 4° C. […] The median fluorescence intensity of the binding signal for each antibody was normalized to the isotype control to obtain a fold over isotype value. An antibody with a fold over isotype (FOI) of ≥10 was considered to be positive for binding.
# [2] = target: T1, human CD3 expressed on cells; assay: flow cytometry, 25 nM
# Method in brief: (§2)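 25 nM Ab in FACS buffer (PBS+2% FBS), 30 min at 4° C on CD3+ cells; flow cytometry MFI normalized to isotype = FOI; cutoff ≥10 for positive.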
# [3] = target: T2, cynomolgus monkey CD3 expressed on primary T cells (cynomolgus monkey, UniProt Q95LI5 22-198; Q95LI8 22-171; Q95LI7 23-181); assay: flow cytometry, 25 nM, cyno primary T cells
# T2 construct: whole, on cells; CD3 complex on purified cynomolgus monkey T cells; also called cyno CD3
# T2 sequence (Q95LI5 22-198, chain 1 of 3): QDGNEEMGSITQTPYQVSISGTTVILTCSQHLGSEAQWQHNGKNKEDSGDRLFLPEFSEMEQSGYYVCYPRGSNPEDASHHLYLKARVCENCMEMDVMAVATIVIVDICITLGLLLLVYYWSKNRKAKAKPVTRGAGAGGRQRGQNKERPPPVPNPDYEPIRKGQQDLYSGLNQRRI
# T2 sequence (Q95LI8 22-171, chain 2 of 3): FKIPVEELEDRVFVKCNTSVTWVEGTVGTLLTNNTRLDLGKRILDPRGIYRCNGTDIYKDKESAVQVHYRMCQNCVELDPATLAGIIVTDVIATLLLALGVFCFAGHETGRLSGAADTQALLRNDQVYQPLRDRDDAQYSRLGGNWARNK
# T2 sequence (Q95LI7 23-181, chain 3 of 3): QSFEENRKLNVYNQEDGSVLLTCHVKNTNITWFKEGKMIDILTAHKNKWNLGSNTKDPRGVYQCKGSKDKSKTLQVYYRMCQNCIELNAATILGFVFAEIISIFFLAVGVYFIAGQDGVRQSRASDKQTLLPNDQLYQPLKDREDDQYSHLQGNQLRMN
# Method in brief: as §2
# [4] = target: T3, cynomolgus monkey CD3 expressed on cyno primary T cells (cynomolgus monkey, UniProt Q95LI5 22-198; Q95LI8 22-171; Q95LI7 23-181); assay: flow cytometry, cyno primary T cells
# T3 construct: whole, on cells; CD3 complex on purified cynomolgus monkey CD3 pan T cells; also called cyno CD3
# T3 sequence (Q95LI5 22-198, chain 1 of 3): as the sequence (Q95LI5 22-198, chain 1 of 3) above
# T3 sequence (Q95LI8 22-171, chain 2 of 3): as the sequence (Q95LI8 22-171, chain 2 of 3) above
# T3 sequence (Q95LI7 23-181, chain 3 of 3): as the sequence (Q95LI7 23-181, chain 3 of 3) above
# Method in brief: as §2
# [5] = target: T4, human CD3 expressed on cells (Jurkat cells; human primary T cells) (human, UniProt P07766 23-207; P04234 22-171; P09693 23-182); assay: flow cytometry, Jurkat cells
# T4 construct: whole, on cells
# T4 sequence (P07766 23-207, chain 1 of 3): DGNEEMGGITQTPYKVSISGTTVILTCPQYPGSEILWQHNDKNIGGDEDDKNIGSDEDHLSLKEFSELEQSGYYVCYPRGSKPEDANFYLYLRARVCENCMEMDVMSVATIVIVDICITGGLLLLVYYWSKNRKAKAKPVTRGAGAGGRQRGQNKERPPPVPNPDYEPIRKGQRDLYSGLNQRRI
# T4 sequence (P04234 22-171, chain 2 of 3): as the sequence (Q95LI8 22-171, chain 2 of 3) above, with V5I, K15N, V20I, T32S, N33D, N34I, A64T, N74S, L83V, R141H counted along it
# T4 sequence (P09693 23-182, chain 3 of 3): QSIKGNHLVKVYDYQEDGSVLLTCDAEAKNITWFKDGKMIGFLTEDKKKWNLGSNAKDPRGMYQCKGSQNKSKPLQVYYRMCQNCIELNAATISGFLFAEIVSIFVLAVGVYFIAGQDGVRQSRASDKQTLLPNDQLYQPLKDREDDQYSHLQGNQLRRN
# Protocol: as §1
# T1 sequence (P07766 23-207, chain 1 of 3): as the sequence (P07766 23-207, chain 1 of 3) above
# T1 sequence (P04234 22-171, chain 2 of 3): as the sequence (Q95LI8 22-171, chain 2 of 3) above, with V5I, K15N, V20I, T32S, N33D, N34I, A64T, N74S, L83V, R141H counted along it
# T1 sequence (P09693 23-182, chain 3 of 3): as the sequence (P09693 23-182, chain 3 of 3) above
Binder,binding result [1],Human primary T Cell Binding (FOI) [2] [FOI],binding result [3],binding result [4],binding result [5]
"mAb 135 (antibody, V domains shown) VH: EVQLVESGGGLVKTGGSLRLSCVASGFSFKKAWMNWVRQAPGKGLEWVGRIKRNSDGGTTDYAAPVKGRFTLSRDDSKNTLYLQMNSLKTEDTAVYYCTTLDSSSWYVGYYYMDVWGKGTTVTVSS VL: not shown",no binding (tested: FOI >=10 = positive),0.821,no binding (tested: FOI >=10 = positive),,
"mAb 147 (antibody, V domains shown) VH: QVQLVQSGAEVKKPGASVKVSCKASGYTFTAYHTHWVRQAPGQGLEWMGWIYPKSGRTTYTQKFQGRVTMTRDTSISTVYMELSRLKSDDTAVYYCARVGALLFDYWGQGTLVTVSS VL: not shown",no binding (tested: FOI >=10 = positive),1.58,no binding (tested: FOI >=10 = positive),,
"mAb 148 (antibody, V domains shown) VH: QVQLVQSGAEVKKPGASVKVSCKASGYTFTAYHTHWVRQAPGQGLEWMGWIYPKSGRTTYTQKFQGRVTMTRDTSISTVYMELSRLKSDDTAVYYCARVGALLFDYWGQGTLVTVSS VL: EIVLTQSPATLSLSPGERATLSCRASQSVSSYLAWYQQKPGQAPRLLIYDASNRATGIPARFSGSGSGTDFTLTISSLEPEDFAVYYCQQRSNWPFTFGPGTKVDIK",no binding (tested: FOI >=10 = positive),1.44,no binding (tested: FOI >=10 = positive),,
"mAb 151 (antibody, V domains shown) VH: QVQLVQSGAEVKKPGASVKVSCKASGYTFTAYHTHWVRQAPGQGLEWMGWIYPKSGRTTYTQKFQGRVTMTRDTSISTVYMELSRLKSDDTAVYYCARVGALLFDYWGQGTLVTVSS VL: DIQMTQSPSSLSASVGDRVTITCRASQGIRNDLGWYQQKPGKAPKCLIYAASNLQSGVPSRFSGSGSGTEFTLTISSLQPEDFATYYCLQHNSYPRTFGQGTKVDVK",no binding (tested: FOI >=10 = positive),1.36,no binding (tested: FOI >=10 = positive),,
"mAb 149 (antibody, V domains shown) VH: QVQLVQSGAEVKKPGASVKVSCKASGYTFTAYHTHWVRQAPGQGLEWMGWIYPKSGRTTYTQKFQGRVTMTRDTSISTVYMELSRLKSDDTAVYYCARVGALLFDYWGQGTLVTVSS VL: not shown",no binding (tested: FOI >=10 = positive),1.45,no binding (tested: FOI >=10 = positive),,
"mAb 150 (antibody, V domains shown) VH: QVQLVQSGAEVKKPGASVKVSCKASGYTFTAYHTHWVRQAPGQGLEWMGWIYPKSGRTTYTQKFQGRVTMTRDTSISTVYMELSRLKSDDTAVYYCARVGALLFDYWGQGTLVTVSS VL: EIVLTQSPATLSLSPGERATLSCRASQSVSSYLAWYQQKPGQAPRLLIYDASNRATGIPARFSGSGSGTDFTLTISSLEPEDFAVYYCQQRSNWPLTFGGGTKVEIK",no binding (tested: FOI >=10 = positive),1.68,no binding (tested: FOI >=10 = positive),,
"mAb 108 (antibody, V domains shown) VH: QVQLVESGGGVVQPGRSLRLSCAASGFTFSSYGMHWVRQAPGKGLEWVAVIWYDGSNKYYEDSVKGRFTISRDNSKNTLHLQMNSLRVEDTAVYYCARGLEFDYWGQGTLVTVSS VL: DIVMTQTPLSSPVTLGQPASISCRSSQSLVHSDGITYLNWLQQRPGQPPRLLIYKISNRFSGVPDRFSGSGSGTDFTLKISRVEAEDVGVYYCMQATQFPWTFGQGTKVEIK",no binding (tested: FOI >=10 = positive),0.772,no binding (tested: FOI >=10 = positive),,
"mAb 103 (antibody, V domains shown) VH: QVQLVQSGAEVMKPGASVKVSCKASGYTFTDFYIHWVRQAPGQGLEWMGWINPKSGNTRFAQKFQGRVTMTRDTSIATSYMELSRLRSDDTAVFYCARMGDLLALDYWGQGTLVTVSS VL: EIVLTQSPATLSLSPGERATLSCRASQSVSSYLAWYQQKPGQAPRLLIYDASNRATGIPARFSGSGSGTDFTLTISSLEPEDFAVYYCQQRSNWYTFGQGTKLEIK",no binding (tested: FOI >=10 = positive),0.526,no binding (tested: FOI >=10 = positive),,
"mAb 104 (antibody, V domains shown) VH: QVQLVQSGAEVKKPGASVKVSCKASGYTFTDFYIHWVRQAPGQGLEWMGWINPKSGNTRFAQRFQGRVTMTRDTSITTSYMELSRLRSDDTAVFYCARMGDLLALDYWGQGTLVTVSS VL: not shown",no binding (tested: FOI >=10 = positive),0.778,no binding (tested: FOI >=10 = positive),,
"mAb 168 (antibody, V domains shown) VH: EVQLVQSGAEVKKPGESLKISCKGSGYIFTSYWIGWVRQMPGKGLEWMGIIYPGDSDTRYSPSFQGQVTISADKSISTAYLQWSSLKASDTAMYYCARRNYYYYMDVWGKGTTVTVSS VL: not shown",no binding (tested: FOI >=10 = positive),1.48,no binding (tested: FOI >=10 = positive),,
"mAb 139 (antibody, V domains shown) VH: QVQLVESGGGVVQPGRSLRLSCAASGFTFSSYAMHWVRQAPGKGLEWVAVIWFDGTNKYYTDSVRGRFTISRDNSKNTLYLQMNSLRAEDTAVYYCATERGITETTRGFDYWGQGTLVTVSS VL: DIQMTQSPSSLSASVGDRVTITCRTSQGIGNDLDWYQQNPGKAPKRLIYATSNLQSGVPSRFSGSGSGTEFTLTISGLQPEDFTTYYCLRHNSYPYTFGQGTKLEIT",no binding (tested: FOI >=10 = positive),0.678,no binding (tested: FOI >=10 = positive),,
"mAb 138 (antibody, V domains shown) VH: QVLLVQSGPEVKKPGASVKVSCKASGYTFTDYYLHWVRQAPGQGLDWMGWINPKSGGTRNAQKFQGRVTMTRDTSISTAYMDLTRLRSDDTAVYYCARVGGELLFDYWGQGTLVTVSS VL: DIVMTQSPLSLSVTPGEPASISCRSSQSLLHSDGYNYLDWFLQKPGQSPHLLIFLGSNRASGVPDRFSGSGSGTDFTLKISRVEAEDVGIYYCMQALQTPLTFGGGTKVEIK",no binding (tested: FOI >=10 = positive),0.796,no binding (tested: FOI >=10 = positive),,
"mAb 124 (antibody, V domains shown) VH: EVQVVESGGDLVQPGGSLRLSCAASGFTFSTYAMTWVRQAPGKGLEWISTISGSGHNTYYADSVKGRFTISRGNSKNTLFLQMNSLRAEDTAVYYCAKENCGGDCLYYMDVWGKGTTVTVSS VL: DIQMTQSPSSLSASVGDRVTITCRASQSISNYLNWYQQKSGKAPKLLIYFASSLQSGVPSRFGGSGAGTDFTLTISSLQPEDFATYSCQQSYSTPLTFGGGTKVEIK",no binding (tested: FOI >=10 = positive),0.835,no binding (tested: FOI >=10 = positive),,
"mAb 107 (antibody, V domains shown) VH: QVQLQESGPGLVKPSETLSLTCTVSGGSISSYCWSWIRQPPGKGLEWIGYIYNIGSTNFNPSLKSRVTISVDTSKNQFSLKLNSVTAADTAVYYCARGGLYSGNGGRFDPWGRGTLVTVSS VL: EIVLTQSPGTLSLSPGQTATLSCRASQGVRSNYLAWYQQKPGQAPRLLIYGASSRATGIPVRFSGSGSGTGFTLTMSRLEPEDFAVYYCQQYGSSPWTFGQGSKVEIK",no binding (tested: FOI >=10 = positive),0.743,no binding (tested: FOI >=10 = positive),,
"mAb 181 (antibody, V domains shown, VH/VL only) VH: QVQLVQSGADMKKPGASVKVSCKASGYTFTDYHIHWVRQAPGQGLEWMGWINPKSGRTMFAQNFQDRVTMTRDTSISTAYMELNRLRSDDSAVYYCARVTQLVFDHWGQGTLVTVSF VL: AIQMTQSPSSLSASVGDRVTITCRASQGIRNDLGWYQQKPGKAPKLLIYAASSLQSGVPSRFSGSGSGTDFTLTISSLQPEDFATYYCLQDYNYMYTFGQGTKLEIK",,,,no binding (tested: FOI <10 (FOI >=10 = positive); 25 nM),no binding (tested: FOI <10 (FOI >=10 = positive); 25 nM)
"mAb 105 (antibody, V domains shown) VH: QVQLQESGPGLVKPSATLSLTCTVSGGSISTYYWSWIRQSPGKGLEWIGYISYSVNTNPSLKSRVTISVDKSKNQLSLNLRSATGADTAVYYCARGGLYGGNAGRFDLWGQGTLVTVSS VL: EIVLTQSPGTLSLSPGERATLSCRASQSVINNYVAWYQQKPGQAPSLIITGVSRRATGIPDRFIGSGSGTDFILIISRLEPEDFAVYCCQQYGNSPWTFGQGTRVEIK",no binding (tested: FOI >=10 = positive),0.842,no binding (tested: FOI >=10 = positive),,
